Assay results: the DeepSol protein solubility set

experiment: soluble on expression in E. coli; label from the status in PepcDB or PDB records

| Sequence | soluble on expression in E. coli |
| --- | --- |
| MPQLSPWQHYQKDLTRDGFSHDPAQEIAVKALQRVYEDLTAAEEPNSLFGKLFTSFGLTSAPAPTKGLYLWGGVGRGKTYLMDTFFDTLPGNQKLRAHFHRFMHQLHLDLDALKGTRDPLLVIAKQMAAKYRVICFDEFFVSDITDAMLLGTLFQALFKEGVVLVATSNIIPDDLYKNGLQRARFLPAIALINQHCEVLNVDSGIDYRLRTLEQAEIYHHPLDEQADTNLLRYFGQLAPEAEISTEAIEIEGRAISIRQQAQGVLLADFRALCDGPRSQRDYMELARIYHTVLVSGIEQMGAFLTGDDIARRFLAMVDEFYERNVKLIVSAQVPLEDIYADGLLSFEFRRCRSRLIEMQSHDYLKSEHLPAAALEHHHHHH | soluble |
| MGSDKIHHHHHHEPVSSISDANYWKSPDLFKAFNIGLHGLLRSQSSYNIFVLGEPRSDIYGDQPFGGEATQGVERFSYNTINAEFTGISNFANFYTTLNQINLMIRRTNETDLLGEAEKNYYLGQAYGLRAYIYFHLLRSWGDVIITTEPTLGSELDISHLDKAASPASEVMDLIKKDIDASEKAFGGDYSYKQGKCYWSKPATLMLKGEVYLWSGRQMGGGTGDYTVAKTALQDLQQNGNLKLQEKFTDVFSFNNKENSEMIFALHSGKEDDFMMWRDYNWRNNMVPQREYMAGYCDETGTPFLEIPGYNLQGLMRYQVKKDHYLKSFREGDTRLKGTLKAVYKKHEDGTLEYIAPIQYKFQGTTLEGSNERSWYDDYPIYRYADALLLLAEAKALLGEDPSTEINAVRERAYGSEYFNAHKNEVAYPNDKGSFYNDNPFEAGDENVMEAILKERLREFFFEGKRWYDLRRFGKDYVLKYTTAQESRLLWPINEGALTNNPALKQTPGY | not soluble |
| MAHHHHHHMQGTGAVSASHCTFNQRSGVSKKEELGDAMKVDNVFPGGPKKDVLVSCANKSRQTAAGIFVHWCCRCESETSGDRGNVCEFFGDCECDDIYSTSNVPKCVKGDHMWRDSSTALRAVLQDVKGRDACNISTPNGKEILMKLTREELTSNIAPQDSSSKIFLFLLAALLMQDESVAQTSN | not soluble |
| MGSDKIHHHHHHMNKKIIEKEILSKVIKKRKEGSNKTNYGRILLICGSQSFGGAAIMASKAVVYSGAGLVTLASDMINRAPFLSSVSEAMFLDYTRTDKLINSIAKSDVILIGSGLEDSDFSFSLLKLVFQNAKTNQLLVLDGTALSMIGKRNLNIPKKPTIIMTPHQGEWQRVSGLSISEQVPVQNYKKMVDLNIDFLVLKSSATEIYALQNPREYKELNIGGPFQAIGGMGDTLAGLIAGFLGQFKNDQISVIQAATYLHSYIARNLSQKQYVTLPTRISEQIPTEMKKIIQTSKY | not soluble |
| MPPVCGRRCSRTGEIRGYSGSIVRRWKRVETRDGPRFRSSLAPHEAALLKNLAGAMIGLLDDRDSSSPSDELEEITGIKTGHAQRPGDPTLRRLLPDFYRPDDLDDDDPTAVDGSESFNAALRSLHEPEIIDAKRVAAQQLLDTVPDNGGRLELTESDANAWIAAVNDLRLALGVMLEIGPRGPERLPGNHPLAAHFNVYQWLTVLQEYLVLVLMGSR | not soluble |
| MASYKGLIVDVNGRSHENNLAHRTREIDRERLIVRRGQPFSITLQCSDSLPPKHHLELVLHLGKRDEVVIKVQKEHGARDKWWFNQQGAQDEILLTLHSPANAVIGHYRLAVLVMSPDGHIVERADKISFHMLFNPWCRDDMVYLPDESKLQEYVMNEDGVIYMGTWDYIRSIPWNYGQFEDYVMDICFEVLDNSPAALKNSEMDIEHRSDPVYVGRTITAMVNSNGDRGVLTGRWEEPYTDGVAPYRWTGSVPILQQWSKAGVRPVKYGQCWVFAAVACTVLRCLGIPTRPITNFASAHDVDGNLSVDFLLNERLESLDSRQRSDSSWNFHCWVESWMSREDLPEGNDGWQVLDPTPQELSDGEFCCGPCPVAAIKEGNLGVKYDAPFVFAEVNADTIYWIVQKDGQRRKITEDHASVGKNISTKSVYGNHREDVTLHYKYPEGSQKEREVYKKAGRRVTEPSNEIAEQGRLQLSIKHAQPVFGTDFDVIVEVKNEGGRDAHAQLTMLAMAVTYNSLRRGECQRKTISVTVPAHKAHKEVMRLHYDDYVRCVSEHHLIRVKALLDAPGENGPIMTVANIPLSTPELLVQVPGKAVVWEPLTAYVSFTNPLPVPLKGGVFTLEGAGLLSATQIHVNGAVAPSGKVSVKLSFSPMRTGVRKLLVDFDSDRLKDVKGVTTVVVHKKYRSLITGLHTD | soluble |
